Km and Peptide Km (uM), fluorescent polarization deacetylase assay data for three molecules are collected here from US20080293081A1, “Fluorescence Polarization Assays for Acetyltransferase/Deacetylase Activity” (Sirtris Pharmaceuticals, Inc., priority 2005, published 2008).

No end group written: not given here.

One data set concerns the target T1, SIRT1 (Homo sapiens, UniProt Q96EB6).
T1 sequence (Q96EB6 1-747): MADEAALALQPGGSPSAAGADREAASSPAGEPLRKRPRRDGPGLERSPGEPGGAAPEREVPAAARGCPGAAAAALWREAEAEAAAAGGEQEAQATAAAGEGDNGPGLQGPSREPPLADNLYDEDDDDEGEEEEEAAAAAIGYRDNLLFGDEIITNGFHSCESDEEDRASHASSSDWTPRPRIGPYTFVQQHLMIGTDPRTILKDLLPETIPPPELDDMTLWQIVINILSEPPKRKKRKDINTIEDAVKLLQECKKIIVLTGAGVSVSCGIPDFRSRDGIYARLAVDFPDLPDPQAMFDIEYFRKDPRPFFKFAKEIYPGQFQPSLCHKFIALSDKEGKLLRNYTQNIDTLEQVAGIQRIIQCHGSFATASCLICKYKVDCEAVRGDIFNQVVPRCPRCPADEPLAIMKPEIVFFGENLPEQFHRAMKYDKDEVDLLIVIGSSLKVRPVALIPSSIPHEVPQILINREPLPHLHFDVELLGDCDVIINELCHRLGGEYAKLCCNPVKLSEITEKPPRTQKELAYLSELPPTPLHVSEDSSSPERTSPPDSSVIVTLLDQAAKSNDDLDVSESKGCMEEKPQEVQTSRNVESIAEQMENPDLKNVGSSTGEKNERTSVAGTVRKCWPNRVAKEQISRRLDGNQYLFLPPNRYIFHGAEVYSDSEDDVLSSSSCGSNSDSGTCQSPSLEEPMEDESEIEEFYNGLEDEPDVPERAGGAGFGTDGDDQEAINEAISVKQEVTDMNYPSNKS
Particulars: Km of NAD with the named peptide substrate; Sirt1, FRET, Marcotte et al.; cited from earlier work.

A further data set has as its target T2, Sirt2 (Homo sapiens, UniProt Q8IXJ6).
T2 sequence (Q8IXJ6 1-389): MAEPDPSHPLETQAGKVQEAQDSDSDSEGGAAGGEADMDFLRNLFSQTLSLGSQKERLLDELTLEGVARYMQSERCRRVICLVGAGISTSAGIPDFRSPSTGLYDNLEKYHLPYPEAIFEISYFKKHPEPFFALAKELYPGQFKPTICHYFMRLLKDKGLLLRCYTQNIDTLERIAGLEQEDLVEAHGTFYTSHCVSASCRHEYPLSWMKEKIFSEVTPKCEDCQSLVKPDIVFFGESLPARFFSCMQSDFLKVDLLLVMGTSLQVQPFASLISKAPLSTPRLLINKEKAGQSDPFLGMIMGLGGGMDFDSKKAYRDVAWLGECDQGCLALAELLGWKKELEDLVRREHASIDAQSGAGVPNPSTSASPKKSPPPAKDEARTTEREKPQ
Conditions: Km of NAD with the named peptide substrate; Sirt2, FRET, Marcotte et al.; cited from earlier work.

Data set [1] addresses T3, Biotin-Nle-PSD-K(Ac)-TIGG-K(MR121)-NH2.
T3 chain: XPSDKTIGGK

For data set [2], the target named is T4, Ac-EE-K(biotin)-GQSTSSHS-K(Ac)-Nle-STEG-K(5-TMR)-EE-NH2.
T4 chain: GQSTSSHSKXSTEGKEE

Consider “p53 20 mer (aa 372-387) *FL: p53 20 mer (aa 372-387) peptide substrate with fluorescent label, FRET assay of Marcotte et al. (KKGQSTSRHKKLMFKT; also: fluorescent label, position not given here; UniProt P04637 372-387, looked up, fragment)”, for which the Km in the data set with SIRT1 was 90 µM; with Sirt2, 42 µM.

B1: Human SIRT2 enzyme (protein)
chain: MAEPDPSHPLETQAGKVQEAQDSDSDSEGGAAGGEADMDFLRNLFSQTLSLGSQKERLLDELTLEGVARYMQSERCRRVICLVGAGISTSAGIPDFRSPSTGLYDNLEKYHLPYPEAIFEISYFKKHPEPFFALAKELYPGQFKPTICHYFMRLLKDKGLLLRCYTQNIDTLERIAGLEQEDLVEAHGTFYTSHCVSASCRHEYPLSWMKEKIFSEVTPKCEDCQSLVKPDIVFFGESLPARFFSCMQSDFLKVDLLLVMGTSLQVQPFASLISKAPLSTPRLLINKEKAGQSDPFLGMIMGLGGGMDFDSKKAYRDVAWLGECDQGCLALAELLGWKKELEDLVRREHASIDAQSGAGVPNPSTSASPKKSPPPAKDEARTTEREKPQ
With B1, the Peptide Km (uM), fluorescent polarization deacetylase assay in data set [1] amounted to 50 µM.

B2: SIRT1 (protein)
chain: MADEAALALQPGGSPSAAGADREAASSPAGEPLRKRPRRDGPGLERSPGEPGGAAPEREVPAAARGCPGAAAAALWREAEAEAAAAGGEQEAQATAAAGEGDNGPGLQGPSREPPLADNLYDEDDDDEGEEEEEAAAAAIGYRDNLLFGDEIITNGFHSCESDEEDRASHASSSDWTPRPRIGPYTFVQQHLMIGTDPRTILKDLLPETIPPPELDDMTLWQIVINILSEPPKRKKRKDINTIEDAVKLLQECKKIIVLTGAGVSVSCGIPDFRSRDGIYARLAVDFPDLPDPQAMFDIEYFRKDPRPFFKFAKEIYPGQFQPSLCHKFIALSDKEGKLLRNYTQNIDTLEQVAGIQRIIQCHGSFATASCLICKYKVDCEAVRGDIFNQVVPRCPRCPADEPLAIMKPEIVFFGENLPEQFHRAMKYDKDEVDLLIVIGSSLKVRPVALIPSSIPHEVPQILINREPLPHLHFDVELLGDCDVIINELCHRLGGEYAKLCCNPVKLSEITEKPPRTQKELAYLSELPPTPLHVSEDSSSPERTSPPDSSVIVTLLDQAAKSNDDLDVSESKGCMEEKPQEVQTSRNVESIAEQMENPDLKNVGSSTGEKNERTSVAGTVRKCWPNRVAKEQISRRLDGNQYLFLPPNRYIFHGAEVYSDSEDDVLSSSSCGSNSDSGTCQSPSLEEPMEDESEIEEFYNGLEDEPDVPERAGGAGFGTDGDDQEAINEAISVKQEVTDMNYPSNKS
Take B2: in data set [2], the Peptide Km (uM), fluorescent polarization deacetylase assay amounted to 7.8 µM.

By Km is commonly meant the substrate concentration at which the rate is half of its maximum.
